According to IntAct's records for PubMed 23559066:

B1: Autophagy-related protein 36 (Saccharomyces cerevisiae), P46983 (parent)
chain: MASVNNYQVDCGSRSARIQPRINNGIHDEESLFEVLELSEEEFELDFHRLKSFNDVRVINNPDLSPECTNTAISRDETLESASSAFEVPSDEIAILSISSDSNKNSPPSEQPAPALRNIRSSSNSDRIDEWCLGSHLFNELHQNVPQSSDGVNHGFPVYSFKERELYTSAKLKKLTNAQRIAVQKLSRDLYPILRTCYREKTRRQLLTYHHERIFDDIPSFFPQRDFIFNYYSMPLEFDRLSDVDIDSSSRSRFTDESTGETLNRSPSAASSSLENTSWFGWTLLSRFLDREW
partner: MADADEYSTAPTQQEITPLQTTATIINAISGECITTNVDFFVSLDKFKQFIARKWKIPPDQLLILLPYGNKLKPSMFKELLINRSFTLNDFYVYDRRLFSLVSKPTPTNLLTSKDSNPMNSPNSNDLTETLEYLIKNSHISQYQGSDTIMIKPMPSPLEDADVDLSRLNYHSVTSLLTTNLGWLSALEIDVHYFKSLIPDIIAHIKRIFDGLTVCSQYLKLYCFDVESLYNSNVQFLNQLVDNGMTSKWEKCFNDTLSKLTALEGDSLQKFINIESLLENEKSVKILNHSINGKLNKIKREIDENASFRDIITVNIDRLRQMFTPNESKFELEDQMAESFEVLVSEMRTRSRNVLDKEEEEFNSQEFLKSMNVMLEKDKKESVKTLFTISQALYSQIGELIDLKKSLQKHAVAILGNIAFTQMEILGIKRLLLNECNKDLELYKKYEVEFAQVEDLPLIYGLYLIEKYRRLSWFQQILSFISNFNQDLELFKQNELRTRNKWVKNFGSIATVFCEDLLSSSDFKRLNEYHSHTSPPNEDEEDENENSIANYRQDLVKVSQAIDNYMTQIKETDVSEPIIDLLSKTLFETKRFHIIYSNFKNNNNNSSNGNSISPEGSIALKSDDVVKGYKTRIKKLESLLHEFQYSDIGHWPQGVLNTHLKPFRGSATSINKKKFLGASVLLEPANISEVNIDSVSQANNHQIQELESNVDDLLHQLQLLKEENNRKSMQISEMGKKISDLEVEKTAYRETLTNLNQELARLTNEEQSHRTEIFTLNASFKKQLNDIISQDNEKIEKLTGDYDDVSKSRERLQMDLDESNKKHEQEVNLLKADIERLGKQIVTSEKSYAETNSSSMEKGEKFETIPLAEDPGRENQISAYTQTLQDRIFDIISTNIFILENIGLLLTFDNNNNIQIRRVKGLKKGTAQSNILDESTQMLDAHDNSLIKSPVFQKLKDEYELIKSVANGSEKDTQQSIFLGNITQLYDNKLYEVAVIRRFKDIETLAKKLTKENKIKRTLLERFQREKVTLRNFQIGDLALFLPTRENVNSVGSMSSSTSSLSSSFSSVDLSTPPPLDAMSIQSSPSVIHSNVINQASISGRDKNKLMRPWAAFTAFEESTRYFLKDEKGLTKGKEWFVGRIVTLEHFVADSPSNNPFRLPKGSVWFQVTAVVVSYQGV
B2: Autophagy-related protein 36 (Saccharomyces cerevisiae), P46983 (parent)
chain: B1 chain
partner: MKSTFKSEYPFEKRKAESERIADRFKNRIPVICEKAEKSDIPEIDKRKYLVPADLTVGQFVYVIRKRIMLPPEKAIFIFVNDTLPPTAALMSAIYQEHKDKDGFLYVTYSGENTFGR
B3: Autophagy-related protein 32 (Saccharomyces cerevisiae), P40458 (parent)
chain: MVLEYQQREGKGSSSKSMPPDSSSTTIHTCSEAQTGEDKGLLDPHLSVLELLSKTGHSPSPMGQNLVTSIDISGNHNVNDSISGSWQAIQPLDLGASFIPERCSSQTTNGSILSSSDTSEEEQELLQAPAADIINIIKQGQEGANVVSPSHPFKQLQKIISLPLPGKEKTPFNEQDDDGDEDEAFEEDSVTITKSLTSSTNSFVMPKLSLTQKNPVFRLLILGRTGSSFYQSIPKEYQSLFELPKYHDSATFPQYTGIVIIFQELREMVSLLNRIVQYSQGKPVIPICQPGQVIQVKNVLKSFLRNKLVKLLFPPVVVTNKRDLKKMFQRLQDLSLEYGEDVNEEDNDDEAIHTKSRSYCRNKKAENSKKKSPKSNKKPKRKKQKFFTSWFTWGISITIGISFGCCVTYFVTAAYEHQTVKSLSLRPSILASLLSLDSSSDTINTPATASPSSTEQFLWFDKGTLQINFHSDGFIMKSLTIIKETWGKMNTFVLHALSKPLKFLENLNKSSEFSIDESNRILALGYILL
partner: B1 partner
B4: Autophagy-related protein 32 (Saccharomyces cerevisiae), P40458 (parent)
chain: B3 chain
partner: B2 partner

Variants of: B1
Settings: with atg11_yeast ATG11, Q12527

Row | Variant | effect of a mutation on the interaction
1 | S97A | disrupting interaction

Variants of: B2
Settings: with atg8_yeast ATG8, P38182

Row | Variant | effect of a mutation on the interaction
2 | S31A | disrupting interaction

Variants of: B2
Settings: with atg8_yeast ATG8, P38182
Remark: another data set of the same source

Row | Variant | effect of a mutation on the interaction
3 | F33A;L36A | disrupting interaction

Variants of: B3
Settings: with atg11_yeast ATG11, Q12527

Row | Variant | effect of a mutation on the interaction
4 | S114A;S119A | disrupting interaction

Variants of: B4
Settings: with atg8_yeast ATG8, P38182

Row | Variant | effect of a mutation on the interaction
5 | S81A;S83A;S85A | disrupting interaction
